The record followed here is US20230147840A1 (Chugai, published 2023).

For assay [1], the target named is T1, Human CD3eg linker (human).
T1 construct: Single-chain soluble construct; also called recombinant human CD3
T1 chain: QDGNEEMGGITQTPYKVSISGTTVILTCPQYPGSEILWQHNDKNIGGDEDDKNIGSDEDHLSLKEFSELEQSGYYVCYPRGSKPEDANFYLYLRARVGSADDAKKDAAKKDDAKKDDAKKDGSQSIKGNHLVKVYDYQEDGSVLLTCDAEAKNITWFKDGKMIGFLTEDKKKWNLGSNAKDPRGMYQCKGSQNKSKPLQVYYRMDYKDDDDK
In words: SPR Biacore 8K, Ab captured on anti-human Fc, CD3 as analyte, 25 C. Here is the method:
(§1) Binding affinity of Dual-Ig antibodies to human CD3 were assessed at 25 degrees C. using Biacore 8K instrument (GE Healthcare). Anti-human Fc (GE Healthcare) was immobilized onto all flow cells of a CM4 sensor chip using amine coupling kit (GE Healthcare). Antibodies were captured onto the anti-Fc sensor surfaces, then recombinant human CD3 or CD137 was injected over the flow cell. All antibodies and analytes were prepared in ACES pH 7.4 containing 20 mM ACES, 150 mM NaCl, 0.05% Tween 20, 0.005% NaN₃. Sensor surface was regenerated each cycle with 3M MgCl₂. […] CD137 binding affinity assay was conducted in same condition except assay temperature was set at 37 degrees C.

In assay [2] the target is T2, Human CD137 extracellular domain (ECD) (human).
T2 construct: also called Human CD137 ECD; recombinant human CD137
Description: SPR Biacore 8K, Ab captured on anti-human Fc, CD137 as analyte, 37 C. The protocol: as §1
Background: SPR reads the build-up and loss of mass on a sensor chip optically.

Assay [3] has as its target T2, Human CD137 extracellular domain (ECD). Description: SPR Biacore 8K, 37 C; reference xGPC3/DualAE05-xSG1350kSG1349hV11. Here is the method:
as §1
This is caused by faster off rate in FAST-Ig construct. […] This is caused by faster off rate in FAST-Ig construct.

In assay [4] the target is T1, Human CD3eg linker. In words: SPR Biacore 8K, Ab captured on anti-human Fc, CD3 as analyte, 25 C. Here is the method:
(§2) Binding affinity of Dual-Fab antibodies (Dual-Ig) to human CD3 were assessed at 25 degrees C. using Biacore 8K instrument (GE Healthcare). Anti-human Fc (GE Healthcare) was immobilized onto all flow cells of a CM4 sensor chip using amine coupling kit (GE Healthcare). Antibodies were captured onto the anti-Fc sensor surfaces, then recombinant human CD3 or CD137 was injected over the flow cell. All antibodies and analytes were prepared in ACES pH 7.4 containing 20 mM ACES, 150 mM NaCl, 0.05% Tween 20, 0.005% NaN₃. Sensor surface was regenerated each cycle with 3M MgCl₂. […] CD137 binding affinity assay was conducted in same condition except assay temperature was set at 37 degrees C.

The target of assay [5] is T2, Human CD137 extracellular domain (ECD). In words: SPR Biacore 8K, Ab captured on anti-human Fc, CD137 as analyte, 37 C. The protocol: as §2
This is another data set of the same source.

Where two headings read alike, the source gives them in different places.

T2 sequence (chain, as listed by the source limits assumed): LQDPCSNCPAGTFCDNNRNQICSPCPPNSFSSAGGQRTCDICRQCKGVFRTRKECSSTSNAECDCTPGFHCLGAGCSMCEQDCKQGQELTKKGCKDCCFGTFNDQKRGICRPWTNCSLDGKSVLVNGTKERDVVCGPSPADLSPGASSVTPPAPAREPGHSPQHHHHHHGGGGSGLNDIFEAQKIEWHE

B1: xGPC3/DualAE05-xSG1350k1349hV11 (bispecific antibody, V domains shown)
VH 1: QVQLVQSGAEVKKPGASVTVSCKASGYTFTDYEMHWIRQPPGEGLEWIGAIDGPTPDTAYSEKFKGRVTLTADKSTSTAYMELSSLTSEDTAVYYCTRFYSYTYWGQGTLVTVSS
VL 1: DIVMTQSPLSLPVTPGEPASISCRSSQPLVHSNRNTYLHWYQQKPGQAPRLLIYKVSNRFSGVPDRFSGSGSGTDFTLKISRVEAEDVGVYYCGQGTQVPYTFGQGTKLEIK
VH 2: QVQLVESGGGLVQPGRSLRLSCAASGFKFSNVWFHWVRQAPGKGLEWVAQIKDYYNAYAAYYAPSVKGRFTISRDDSKNSIYLQMNSLKTEDTAVYYCHYVHYASASTLLPAEGVDAWGQGTTVTVSS
VL 2: DIVMTQSPLSLPVTPGEPASISCQPSQEVVHMNRNTYLHWYQQKPGQAPRLLIYKVSNRFPGVPDRFSGSGSGTDFTLKISRVEAEDVGVYYCAQGTSHPFTFGQGTKLEIK
notes: 1+1 tri-specific, CrossMab format (VH/VL of the GPC3 arm exchanged, charge mutations in CH1/CL of the Dual arm); also called xGPC3/DualAE05-xSG1350kSG1349hV11; AE05 CrossMab
As usually defined, the Kd is the equilibrium constant for the complex coming apart. In general, koff refers to a measure of how fast the partners let go of each other. As usually defined, the kon is the rate constant with which the complex forms. Low values mean slower complex formation, high ones faster complex formation. On to B1, for which, in the assay with Human CD3eg linker [1], the Kd is 296 nM, the koff came out at 0.0275 s⁻¹ and the kon was 92900 M⁻¹ s⁻¹. In assay [2], this molecule came in with a Kd of 40.5 nM, a koff of 0.000525 s⁻¹ and a kon of 13000 M⁻¹ s⁻¹.

B2: GPC3/DualAE05-SG1363k1364hV11 (bispecific antibody, V domains shown)
VH 1: QVQLVQSGAEVKKPGASVTVSCKASGYTFTDYEMHWIRQPPGEGLEWIGAIDGPTPDTAYSEKFKGRVTLTADKSTSTAYMELSSLTSEDTAVYYCTRFYSYTYWGQGTLVTVSS
VL 1: DIVMTQSPLSLPVTPGEPASISCRSSQPLVHSNRNTYLHWYQQKPGQAPRLLIYKVSNRFSGVPDRFSGSGSGTDFTLKISRVEAEDVGVYYCGQGTQVPYTFGQGTKLEIK
VH 2: QVQLVESGGGLVQPGRSLRLSCAASGFKFSNVWFHWVRQAPGKGLEWVAQIKDYYNAYAAYYAPSVKGRFTISRDDSKNSIYLQMNSLKTEDTAVYYCHYVHYASASTLLPAEGVDAWGQGTTVTVSS
VL 2: DIVMTQSPLSLPVTPGEPASISCQPSQEVVHMNRNTYLHWYQQKPGQAPRLLIYKVSNRFPGVPDRFSGSGSGTDFTLKISRVEAEDVGVYYCAQGTSHPFTFGQGTKLEIK
notes: 1+1 tri-specific, FAST-Ig format
In the assay with Human CD3eg linker [1], B2 yielded a Kd of 314 nM, a koff of 0.0278 s⁻¹ and a kon of 88500 M⁻¹ s⁻¹. In assay [2], this molecule showed a Kd of 79.5 nM, a koff of 0.00102 s⁻¹ and a kon of 12800 M⁻¹ s⁻¹. Further, in assay [3], the “fold weaker binding affinity than CrossMab prepared antibodies” value was roughly 2 fold.

B3: H1572L0581 (antibody, V domains shown)
VH: QVQLVESGGGLVQPGRSLRLSCAASGFKFSNVWFHWVRQAPGKGLEWVAQIKDKYNAYAAYYAPSVKGRFTISRDDSKNSIYLQMNSLKTEDTAVYYCHYVHYASASTLLPAEGVDAWGQGTTVTVSS
VL: DIVMTQSPLSLPVTPGEPASISCQPSQEVVHMNRNTYLHWYQQKPGQAPRLLIYKVSNRFPGVPDRFSGSGSGTDFTLKISRVEAEDVGVYYCAQGTSHPFTFGQGTKLEIK
notes: Dual-Ig with an Fc; also called DualAE26; dBBDu183H1572/dBBDu072L0581
In the assay with Human CD3eg linker [4], B3 gave a Kd of 286 nM, a koff of 0.028 s⁻¹ and a kon of 97700 M⁻¹ s⁻¹. For the same molecule, in assay [5], binding was characterised by a dissociation constant (Kd) of 52.1 nM, the koff amounted to 0.000722 s⁻¹ and the kon turned out to be 13900 M⁻¹ s⁻¹.

B4: GPC3/DualAE05-SG1364k1363hV11 (bispecific antibody, V domains shown)
VH 1: QVQLVQSGAEVKKPGASVTVSCKASGYTFTDYEMHWIRQPPGEGLEWIGAIDGPTPDTAYSEKFKGRVTLTADKSTSTAYMELSSLTSEDTAVYYCTRFYSYTYWGQGTLVTVSS
VL 1: DIVMTQSPLSLPVTPGEPASISCRSSQPLVHSNRNTYLHWYQQKPGQAPRLLIYKVSNRFSGVPDRFSGSGSGTDFTLKISRVEAEDVGVYYCGQGTQVPYTFGQGTKLEIK
VH 2: QVQLVESGGGLVQPGRSLRLSCAASGFKFSNVWFHWVRQAPGKGLEWVAQIKDYYNAYAAYYAPSVKGRFTISRDDSKNSIYLQMNSLKTEDTAVYYCHYVHYASASTLLPAEGVDAWGQGTTVTVSS
VL 2: DIVMTQSPLSLPVTPGEPASISCQPSQEVVHMNRNTYLHWYQQKPGQAPRLLIYKVSNRFPGVPDRFSGSGSGTDFTLKISRVEAEDVGVYYCAQGTSHPFTFGQGTKLEIK
notes: 1+1 tri-specific, FAST-Ig format; Same variable regions as m28, different constant-region charge mutations; Full chains not tied by name
In the assay with Human CD3eg linker [1], B4 gave a Kd of 282 nM, a koff of 0.0263 s⁻¹ and a kon of 93400 M⁻¹ s⁻¹. In assay [2], the affinity, expressed as Kd, was 54.7 nM; the koff was 0.000745 s⁻¹; the kon was 13600 M⁻¹ s⁻¹. In addition, the “fold weaker binding affinity than CrossMab prepared antibodies” value in assay [3] is roughly 2 fold.

B5: H0888L0581 (antibody, V domains shown)
VH: QVQLVESGGGLVQPGRSLRLSCAASGFKFSNVWMHWVRQAPGKGLEWVAQIKDKWNAYAAYYAPSVKGRFTISRDDSKNSIYLQMNSLKTEDTAVYYCHYIHYASASTLLPAFGIDAWGQGTTVTVSS
VL: DIVMTQSPLSLPVTPGEPASISCQPSQEVVHMNRNTYLHWYQQKPGQAPRLLIYKVSNRFPGVPDRFSGSGSGTDFTLKISRVEAEDVGVYYCAQGTSHPFTFGQGTKLEIK
notes: Dual-Ig with an Fc; also called DualAE02; dBBDu183H0888/dBBDu072L0581
Consider B5, for which, in the assay with Human CD3eg linker [4], the dissociation constant Kd was 20.2 nM, the koff worked out at 0.00192 s⁻¹ and the kon is 95000 M⁻¹ s⁻¹. In assay [5], this molecule came in with a Kd of 208 nM, a koff of 0.00311 s⁻¹ and a kon of 15000 M⁻¹ s⁻¹.

B6: H1644L0939 (antibody, V domains shown)
VH: QVQLVESGGGLVQPGRSLRLSCAASGFVFSNVWFHWVRQAPGKGLEWVAQIKDYYNAYAAYYAPSVKGRFTISRDDSKNSIYLQMNSLKTEDTAVYYCHYVHYASASTLLPAEGVDAWGQGTTVTVSS
VL: DIVMTQSPLSLPVTPGEPASISCQPSQEVVHMNRNTYLHWYQQKPGQAPRLLIYKVSNVFPGVPDRFSGSGSGTDFTLKISRVEAEDVGVYYCAQGTHHPFTFGQGTKLEIK
notes: Dual-Ig with an Fc; also called DualAE16; dBBDu183H1644/dBBDu072L0939
For B6, in the assay with Human CD3eg linker [4], the Kd turned out to be 1450 nM, the koff worked out at 0.0808 s⁻¹ and the kon was 55800 M⁻¹ s⁻¹. In assay [5], this molecule had a dissociation constant Kd of 36.8 nM, a koff of 0.000444 s⁻¹ and a kon of 12100 M⁻¹ s⁻¹.

B7: H1595L0581 (antibody, V domains shown)
VH: QVQLVESGGGLVQPGRSLRLSCAASGFKFSNTWMHWVRQAPGKGLEWVAQIKDKYNAYAAYYAPSVKGRFTISRDDSKNSIYLQMNSLKTEDTAVYYCHYIHYASASTLLPAFGVDAWGQGTTVTVSS
VL: DIVMTQSPLSLPVTPGEPASISCQPSQEVVHMNRNTYLHWYQQKPGQAPRLLIYKVSNRFPGVPDRFSGSGSGTDFTLKISRVEAEDVGVYYCAQGTSHPFTFGQGTKLEIK
notes: Dual-Ig with an Fc; also called DualAE24; dBBDu183H1595/dBBDu072L0581
In the assay with Human CD3eg linker [4], B7 came in with a Kd of 57 nM, a koff of 0.00658 s⁻¹ and a kon of 116000 M⁻¹ s⁻¹. Besides, in assay [5], the affinity, expressed as Kd, was 195 nM; the koff stood at 0.00269 s⁻¹; the kon came out at 13800 M⁻¹ s⁻¹.

B8: H0883 (antibody, V domains shown)
VH: QVQLVESGGGLVQPGRSLRLSCAASGFTFSNAWMHWVRQAPGKGLEWVAQIKDKGNAYAAYYAPSVKGRFTISRDDSKNSIYLQMNSLKTEDTAVYYCRYVHYASASTLLPAFGVDAWGQGTTVTVSS
VL: DIVMTQSPLSLPVTPGEPASISCQASQELVHMNRNTYLHWYQQKPGQAPRLLIYKVSNRFPGVPDRFSGSGSGTDFTLKISRVEAEDVGVYYCAQGTSVPFTFGQGTKLEIK
notes: Dual-Ig with an Fc; also called DualAE27; dBBDu183H0883/dBBDu072L
Regarding B8, in the assay with Human CD3eg linker [4], the affinity, expressed as Kd, was 110 nM; the koff was 0.00999 s⁻¹; the kon came to 90700 M⁻¹ s⁻¹.

B9: H1573L0581 (antibody, V domains shown)
VH: QVQLVESGGGLVQPGRSLRLSCAASGFKFSNVWFHWVRQAPGKGLEWVAQIKDYYNAYAAYYAPSVKGRFTISRDDSKNSIYLQMNSLKTEDTAVYYCHYVHYASASTLLPAFGVDAWGQGTTVTVSS
VL: DIVMTQSPLSLPVTPGEPASISCQPSQEVVHMNRNTYLHWYQQKPGQAPRLLIYKVSNRFPGVPDRFSGSGSGTDFTLKISRVEAEDVGVYYCAQGTSHPFTFGQGTKLEIK
notes: Dual-Ig with an Fc; also called DualAE07; dBBDu183H1573/dBBDu072L0581
Turning to B9, in the assay with Human CD3eg linker [4], binding was characterised by a dissociation constant (Kd) of 158 nM, the koff was determined as 0.0188 s⁻¹ and the kon is 121000 M⁻¹ s⁻¹. In assay [5], this molecule yielded a Kd of 70.6 nM, a koff of 0.00103 s⁻¹ and a kon of 14600 M⁻¹ s⁻¹.

B10: H1579L0581 (antibody, V domains shown)
VH: QVQLVESGGGLVQPGRSLRLSCAASGFKFSHVWFHWVRQAPGKGLEWVAQIKDKYNAYAAYYAPSVKGRFTISRDDSKNSIYLQMNSLKTEDTAVYYCHYVHYASASTLLPAFGVDAWGQGTTVTVSS
VL: DIVMTQSPLSLPVTPGEPASISCQPSQEVVHMNRNTYLHWYQQKPGQAPRLLIYKVSNRFPGVPDRFSGSGSGTDFTLKISRVEAEDVGVYYCAQGTSHPFTFGQGTKLEIK
notes: Dual-Ig with an Fc; also called DualAE25; dBBDu183H1579/dBBDu072L0581
In the assay with Human CD3eg linker [4], B10 gave a Kd of 273 nM, a koff of 0.034 s⁻¹ and a kon of 124000 M⁻¹ s⁻¹. In assay [5], this molecule returned a Kd of 275 nM, a koff of 0.00406 s⁻¹ and a kon of 14800 M⁻¹ s⁻¹.
